Test results reported in US20260193644A1, “Compositions and Methods For Modulation of Tumor Suppressors and Oncogenes” (FLAGSHIP PIONEERING INNOVATIONS VII, LLC, priority 2022, published 2026).

What was measured:
NAMALWA cells = experiment: Chemotaxis assay (trans-well cell migration); assay type: cell-based; details: NAMALWA human Burkitt lymphoma cells; 24 hours; SDF-1 (CXCL-12)
Protocol: Chemotaxis Assay: NAMALWA cells (human Burkitt lymphoma cell line, ATCC) were cultured in serum-free ATCC formulated RPMI for 24 hr prior to the assay. After starvation, harvest cells and centrifuge at 1,000×g, for 5 minutes to pellet them. Resuspend the cell in a serum-free media. Using Cell Migration/Chemotaxis Assay Kit (96-well, 8 μm) from Abcam, add 150 μL of serum-free media containing desired chemoattractant to the bottom chamber. Then add 50,000 cells and desired inhibitor (or peptides) to each well of the top chamber. Place the plate and incubate at 37° C. in CO2 incubator for 24 hours. After incubation, add 110 μL of Cell Dye+Cell Dissociation Solution mix to each bottom well and incubate at 37° C. in CO2 incubator for an hour. After incubation remove the top chamber and read the plate at Ex/Em=530/590 nm.

CXCR4 = CXCR4 (Homo sapiens, UniProt P61073); experiment: PathHunter β-Arrestin CXCR4 human chemokine GPCR antagonist assay (gpcrMAX screening and hit-confirmation); assay type: cell-based; details: for % inhibition: hit-confirmation
Protocol: SEQ ID NO: 30949 blocks CXCR4 and cancer cell migration, making it suitable in the treatment of multiple cancers. Whereas SEQ ID NO: 34229 agonizes C3AR1, a key regulator of immune response and inflammation. The target proteins SEQ ID NO: 30949 and SEQ ID NO: 34229 were treated with gpcrMAX, which is a comprehensive panel covering 168 G protein-coupled receptors (GPCRs) from over 60 distinct receptor families. This panel utilizes PathHunter® β-Arrestin technology (Eurofins DiscoverX). PathHunter β-Arrestin GPCR cell lines are engineered to co-express the ProLink™ (PK) tagged GPCR and the Enzyme Acceptor (EA) tagged β-Arrestin. Activation of the GPCR-PK induces β-Arrestin-EA recruitment, forcing complementation of the two β-galactosidase enzyme fragments (EA and PK). The resulting functional enzyme hydrolyzes substrate to generate a chemiluminescent signal.
Cell Handling: PathHunter® cell lines were expanded from freezer stocks according to standard procedures. Cells were seeded in a total volume of 20 μL into white walled, 384-well microplates and incubated at 37° C. for the appropriate time prior to testing. […]
Signal Detection: Assay signal was generated through a single addition of 12.5 or 15 μL (50% v/v) of PathHunter® Detection reagent cocktail, followed by a one-hour incubation at room temperature. Microplates were read following signal generation with a PerkinElmer Envision™ instrument for chemiluminescent signal detection.
Data Analysis: Compound activity was analyzed using CBIS data analysis suite (ChemInnovation, CA). For agonist mode assays, percentage activity was calculated using the following formula: % Activity=100%×(mean RLU of test sample−mean RLU of vehicle control)/(mean MAX control ligand−mean RLU of vehicle control). For antagonist mode assays, percentage inhibition was calculated using the following formula: % Inhibition=100%×(1−(mean RLU of test sample−mean RLU of vehicle control)/(mean RLU of EC80 control−mean RLU of vehicle control)).

Chain of CXCR4 (P61073 whole entry): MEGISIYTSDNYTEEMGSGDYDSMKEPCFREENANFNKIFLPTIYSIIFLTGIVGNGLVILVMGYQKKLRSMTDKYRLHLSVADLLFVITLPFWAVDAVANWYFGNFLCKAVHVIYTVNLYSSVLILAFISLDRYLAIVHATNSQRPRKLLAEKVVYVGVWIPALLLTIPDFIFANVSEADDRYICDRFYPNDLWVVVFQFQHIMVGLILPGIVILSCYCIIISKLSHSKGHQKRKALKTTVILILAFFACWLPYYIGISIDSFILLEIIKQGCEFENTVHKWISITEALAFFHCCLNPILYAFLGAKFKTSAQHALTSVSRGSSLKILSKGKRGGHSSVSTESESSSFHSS

GPCR ligand mode at CXCR4 (CXCR4; gpcrMAX panel): blocked CXCR4
% inhibition (CXCR4; 0.3 μM): ~ 80%
% inhibition (CXCR4; 1 μM): ~ 80%
Substance: SEQ ID NO: 30949: novel peptide GPCR ligand that blocks CXCR4; sequence only in Sequence Listing (MTAFGLGIPTFLVMQPSGSQPRFPALTQNGVALVRTPLTSVYLRVRICRVLGPRSQPS; listed as Homo sapiens)
chemotactic migration (NAMALWA cells): significantly inhibit the chemotactic migration
